B1: Eukaryotic translation initiation factor 4 gamma 2 (Homo sapiens), P78344-1 (parent)
chain: MESAIAEGGASRFSASSGGGGSRGAPQHYPKTAGNSEFLGKTPGQNAQKWIPARSTRRDDNSAANNSANEKERHDAIFRKVRGILNKLTPEKFDKLCLELLNVGVESKLILKGVILLIVDKALEEPKYSSLYAQLCLRLAEDAPNFDGPAAEGQPGQKQSTTFRRLLISKLQDEFENRTRNVDVYDKRENPLLPEEEEQRAIAKIKMLGNIKFIGELGKLDLIHESILHKCIKTLLEKKKRVQLKDMGEDLECLCQIMRTVGPRLDHERAKSLMDQYFARMCSLMLSKELPARIRFLLQDTVELREHHWVPRKAFLDNGPKTINQIRQDAVKDLGVFIPAPMAQGMRSDFFLEGPFMPPRMKMDRDPLGGLADMFGQMPGSGIGTGPGVIQDRFSPTMGRHRSNQLFNGHGGHIMPPTQSQFGEMGGKFMKSQGLSQLYHNQSQGLLSQLQGQSKDMPPRFSKKGQLNADEISLRPAQSFLMNKNQVPKLQPQITMIPPSAQPPRTQTPPLGQTPQLGLKTNPPLIQEKPAKTSKKPPPSKEELLKLTETVVTEYLNSGNANEAVNGVREMRAPKHFLPEMLSKVIILSLDRSDEDKEKASSLISLLKQEGIATSDNFMQAFLNVLDQCPKLEVDIPLVKSYLAQFAARAIISELVSISELAQPLESGTHFPLFLLCLQQLAKLQDREWLTELFQQSKVNMQKMLPEIDQNKDRMLEILEGKGLSFLFPLLKLEKELLKQIKLDPSPQTIYKWIKDNISPKLHVDKGFVNILMTSFLQYISSEVNPPSDETDSSSAPSKEQLEQEKQLLLSFKPVMQKFLHDHVDLQVSALYALQVHCYNSNFPKGMLLRFFVHFYDMEIIEEEAFLAWKEDITQEFPGKGKALFQVNQWLTWLETAEEEESEEEAD

Data on three variants can be found in IntAct's records for PubMed 23478064.

In the test the parent is B1. To be noted: with if4a1_human EIF4A1, P60842.
Chain of if4a1_human EIF4A1, P60842 (P60842 whole entry): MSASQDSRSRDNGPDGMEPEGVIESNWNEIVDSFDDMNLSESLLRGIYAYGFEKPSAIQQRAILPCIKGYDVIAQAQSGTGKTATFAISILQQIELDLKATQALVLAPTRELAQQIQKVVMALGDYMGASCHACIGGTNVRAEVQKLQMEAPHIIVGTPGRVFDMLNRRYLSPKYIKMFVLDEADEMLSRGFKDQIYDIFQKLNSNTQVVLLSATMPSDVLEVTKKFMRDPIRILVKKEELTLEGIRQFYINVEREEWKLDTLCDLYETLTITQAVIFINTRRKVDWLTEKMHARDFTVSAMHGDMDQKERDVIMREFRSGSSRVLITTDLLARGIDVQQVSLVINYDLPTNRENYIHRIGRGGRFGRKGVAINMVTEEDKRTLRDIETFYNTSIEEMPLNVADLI
In the case of N86A, the “effect of a mutation on the interaction” value is recorded as “disrupting interaction strength”.

With E125K, the “effect of a mutation on the interaction” value is given as “disrupting interaction strength”.

As for F296A, the “effect of a mutation on the interaction” value is listed as “disrupting interaction strength”.
